Experimental data from patent US20220033483A1 (GUAGNDONG FEIPENG BIOLOGICAL, published 2022).

Target: T1, cTnI quality control product recombinant protein (human, UniProt P19429 1-210, limits assumed)
T1 construct: the assay paragraphs only say cTnI; also called cardiac troponin I; cTnI antigen
Test: AMC biosensor, antibody on sensor
Description: Operating process: it is equilibrated in Buffer 1 (PBST) for 60 s, the antibody is immobilized in an antibody solution for 300 s, incubated in Buffer 2 (PBST) for 180 s, bound in antigen solution for 420 s, dissociated in the Buffer 2 for 1200 s, 10 mM of GLY solution with pH 1.69 and Buffer 3 are used for sensor regeneration, and data is output.

T1 sequence (P19429 whole entry): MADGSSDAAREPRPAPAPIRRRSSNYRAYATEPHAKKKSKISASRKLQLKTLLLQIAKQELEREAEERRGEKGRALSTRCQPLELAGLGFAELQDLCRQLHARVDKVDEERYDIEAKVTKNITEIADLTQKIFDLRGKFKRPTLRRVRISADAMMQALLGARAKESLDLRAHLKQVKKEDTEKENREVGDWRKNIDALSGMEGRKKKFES

Row | Kd | koff | kon | Binder
1 | 31.8 nM | 0.000922 s⁻¹ | 29000 M⁻¹ s⁻¹ | WT 1-4 (antibody, V domains shown) VH: QVQLQQSGTELAKPGASVKFSCKASDYTFSTYWMYWIKQRPGQGLEWIGYINPSSGHTEYNQRFKDKATLTADKSSSTAYMQLNSLTSEDSAVYYCARKYYGPFAMDYWGQGTSVTVSS VL: EIFLTQSPAIMSASPGEKVTMTCSASTTVSYAHWYQQKSGTSPKRWLYDSSKIASGIPVRFSGSGSGTSYSLTISSMEAEDAATYYCQNWSTNPYTFGGGTKLEIKR
2 | 4.16 nM | 0.000138 s⁻¹ | 33200 M⁻¹ s⁻¹ | Mutation 1-40 (antibody, V domains shown) VH: QVQLQQSGTELAKPGASVKFSCKASGYTFSTYWMYWIKQRPGQGLEWIGYLNPSSGHTDYNQRFKDKATLTADKSSSTAYMQLNSLTSEDSAVYYCARRYFGPFGMDYWGQGTSVTVSS VL: EIFLTQSPAIMSASPGEKVTMTCSASSTVSYVHWYQQKSGTSPKRWLYDTSKIASGIPVRFSGSGSGTSYSLTISSMEAEDAATYYCQQWSTNPYTFGGGTKLEIKR
3 | 3.29 nM | 6.88e-05 s⁻¹ | 20900 M⁻¹ s⁻¹ | Mutation 1-12 (antibody, V domains shown) VH: QVQLQQSGTELAKPGASVKFSCKASGYTFSTYWMYWIKQRPGQGLEWIGYLNPSTGHTDYNQRFKDKATLTADKSSSTAYMQLNSLTSEDSAVYYCARRYFGPFGMDYWGQGTSVTVSS VL: EIFLTQSPAIMSASPGEKVTMTCSASTTVSYVHWYQQKSGTSPKRWLYDTSKIASGIPVRFSGSGSGTSYSLTISSMEAEDAATYYCQQWSTQPYTFGGGTKLEIKR
4 | 4.18 nM | 6.9e-05 s⁻¹ | 16500 M⁻¹ s⁻¹ | Mutation 1-44 (antibody, V domains shown) VH: QVQLQQSGTELAKPGASVKFSCKASGYTFSTYWMYWIKQRPGQGLEWIGYINPSSGHTDYNQRFKDKATLTADKSSSTAYMQLNSLTSEDSAVYYCARKYYGPFGMDYWGQGTSVTVSS VL: EIFLTQSPAIMSASPGEKVTMTCSASSSVSYVHWYQQKSGTSPKRWIYDTSKIASGIPVRFSGSGSGTSYSLTISSMEAEDAATYYCQQWSTNPYTFGGGTKLEIKR
5 | 9.29 nM | 0.000173 s⁻¹ | 18600 M⁻¹ s⁻¹ | Mutation 1-24 (antibody, V domains shown) VH: QVQLQQSGTELAKPGASVKFSCKASGYTFSTYWMYWIKQRPGQGLEWIGYINPSTGHTDYNQKFKDKATLTADKSSSTAYMQLNSLTSEDSAVYYCARRYFGPFGMDYWGQGTSVTVSS VL: EIFLTQSPAIMSASPGEKVTMTCSASSTVSYVHWYQQKSGTSPKRWLYDTSKIASGIPVRFSGSGSGTSYSLTISSMEAEDAATYYCQQWSSNPYTFGGGTKLEIKR
6 | 0.548 nM | 1.78e-05 s⁻¹ | 32400 M⁻¹ s⁻¹ | Mutation 1-32 (antibody, V domains shown) VH: QVQLQQSGTELAKPGASVKFSCKASGYTFSTYWMYWIKQRPGQGLEWIGYLNPSSGHTDYNQRFKDKATLTADKSSSTAYMQLNSLTSEDSAVYYCARKYWGPFGMDYWGQGTSVTVSS VL: EIFLTQSPAIMSASPGEKVTMTCSASSTVSYVHWYQQKSGTSPKRWLYDTSKIASGIPVRFSGSGSGTSYSLTISSMEAEDAATYYCQQWSSNPYTFGGGTKLEIKR
7 | 4.19 nM | 0.000155 s⁻¹ | 37000 M⁻¹ s⁻¹ | Mutation 1-10 (antibody, V domains shown) VH: QVQLQQSGTELAKPGASVKFSCKASGYTFTSYWMYWIKQRPGQGLEWIGYINPSTGHTDYNQRFKDKATLTADKSSSTAYMQLNSLTSEDSAVYYCARKYYGPFGMDYWGQGTSVTVSS VL: EIFLTQSPAIMSASPGEKVTMTCSASSTVSYVHWYQQKSGTSPKRWLYDTSKLASGIPVRFSGSGSGTSYSLTISSMEAEDAATYYCQQWSTQPYTFGGGTKLEIKR
8 | 1.39 nM | 6.64e-05 s⁻¹ | 47700 M⁻¹ s⁻¹ | Mutation 1-16 (antibody, V domains shown) VH: QVQLQQSGTELAKPGASVKFSCKASGYTFSTYWMYWIKQRPGQGLEWIGYINPSSGHTDYNQKFKDKATLTADKSSSTAYMQLNSLTSEDSAVYYCARKYYGPFGMDYWGQGTSVTVSS VL: EIFLTQSPAIMSASPGEKVTMTCSASTTVSYVHWYQQKSGTSPKRWLYDTSKIASGIPVRFSGSGSGTSYSLTISSMEAEDAATYYCQQWSTQPYTFGGGTKLEIKR
9 | 5.49 nM | 9.5e-05 s⁻¹ | 17300 M⁻¹ s⁻¹ | Mutation 1-36 (antibody, V domains shown) VH: QVQLQQSGTELAKPGASVKFSCKASGYTFSTYWMYWIKQRPGQGLEWIGYINPSSGHTDYNQRFKDKATLTADKSSSTAYMQLNSLTSEDSAVYYCARRYWGPFGMDYWGQGTSVTVSS VL: EIFLTQSPAIMSASPGEKVTMTCSASSTVSYVHWYQQKSGTSPKRWLYDTSKIASGIPVRFSGSGSGTSYSLTISSMEAEDAATYYCQQWSTNPYTFGGGTKLEIKR
10 | 0.813 nM | 2.45e-05 s⁻¹ | 30100 M⁻¹ s⁻¹ | Mutation 1-9 (antibody, V domains shown) VH: QVQLQQSGTELAKPGASVKFSCKASGYTFSSYWMYWIKQRPGQGLEWIGYINPSSGHTDYNQRFKDKATLTADKSSSTAYMQLNSLTSEDSAVYYCARKYFGPFGMDYWGQGTSVTVSS VL: EIFLTQSPAIMSASPGEKVTMTCSASSSVSYVHWYQQKSGTSPKRWIYDTSKIASGIPVRFSGSGSGTSYSLTISSMEAEDAATYYCQQWSTQPYTFGGGTKLEIKR
11 | 0.404 nM | 1.92e-05 s⁻¹ | – | Mutation 1-34 (antibody, V domains shown) VH: QVQLQQSGTELAKPGASVKFSCKASGYTFTSYWMYWIKQRPGQGLEWIGYINPSSGHTDYNQKFKDKATLTADKSSSTAYMQLNSLTSEDSAVYYCARKYYGPFGMDYWGQGTSVTVSS VL: EIFLTQSPAIMSASPGEKVTMTCSASTTVSYVHWYQQKSGTSPKRWLYDTSKLASGIPVRFSGSGSGTSYSLTISSMEAEDAATYYCQQWSSNPYTFGGGTKLEIKR
12 | 0.941 nM | 1.39e-05 s⁻¹ | 14800 M⁻¹ s⁻¹ | Mutation 1-28 (antibody, V domains shown) VH: QVQLQQSGTELAKPGASVKFSCKASGYTFSTYWMYWIKQRPGQGLEWIGYLNPSTGHTDYNQRFKDKATLTADKSSSTAYMQLNSLTSEDSAVYYCARKYYGPFGMDYWGQGTSVTVSS VL: EIFLTQSPAIMSASPGEKVTMTCSASTTVSYVHWYQQKSGTSPKRWLYDTSKIASGIPVRFSGSGSGTSYSLTISSMEAEDAATYYCQQWSSNPYTFGGGTKLEIKR
13 | 7.73 nM | 0.000118 s⁻¹ | 15300 M⁻¹ s⁻¹ | Mutation 1-1 (antibody, V domains shown) VH: QVQLQQSGTELAKPGASVKFSCKASGYTFSTYWMYWIKQRPGQGLEWIGYINPSTGHTDYNQKFKDKATLTADKSSSTAYMQLNSLTSEDSAVYYCARRYYGPFGMDYWGQGTSVTVSS VL: EIFLTQSPAIMSASPGEKVTMTCSASSSVSYVHWYQQKSGTSPKRWIYDTSKIASGIPVRFSGSGSGTSYSLTISSMEAEDAATYYCQQWSTNPYTFGGGTKLEIKR
14 | 5.72 nM | 0.000211 s⁻¹ | 36900 M⁻¹ s⁻¹ | Mutation 1-4 (antibody, V domains shown) VH: QVQLQQSGTELAKPGASVKFSCKASGYTFSTYWMYWIKQRPGQGLEWIGYINPSSGHTDYNQRFKDKATLTADKSSSTAYMQLNSLTSEDSAVYYCARKYYGPFGMDYWGQGTSVTVSS VL: EIFLTQSPAIMSASPGEKVTMTCSASTTVSYVHWYQQKSGTSPKRWLYDTSKIASGIPVRFSGSGSGTSYSLTISSMEAEDAATYYCQQWSTNPYTFGGGTKLEIKR
15 | 2.3 nM | 8.41e-05 s⁻¹ | 36500 M⁻¹ s⁻¹ | Mutation 1-18 (antibody, V domains shown) VH: QVQLQQSGTELAKPGASVKFSCKASGYTFTTYWMYWIKQRPGQGLEWIGYINPSSGHTDYNQRFKDKATLTADKSSSTAYMQLNSLTSEDSAVYYCARRYFGPFGMDYWGQGTSVTVSS VL: EIFLTQSPAIMSASPGEKVTMTCSASTTVSYVHWYQQKSGTSPKRWLYDTSKLASGIPVRFSGSGSGTSYSLTISSMEAEDAATYYCQQWSSQPYTFGGGTKLEIKR
16 | 2.03 nM | 6.94e-05 s⁻¹ | 34100 M⁻¹ s⁻¹ | Mutation 1-47 (antibody, V domains shown) VH: QVQLQQSGTELAKPGASVKFSCKASGYTFTTYWMYWIKQRPGQGLEWIGYLNPSTGHTDYNQKFKDKATLTADKSSSTAYMQLNSLTSEDSAVYYCARRYYGPFGMDYWGQGTSVTVSS VL: EIFLTQSPAIMSASPGEKVTMTCSASTTVSYVHWYQQKSGTSPKRWLYDTSKIASGIPVRFSGSGSGTSYSLTISSMEAEDAATYYCQQWSTQPYTFGGGTKLEIKR
17 | 1.7 nM | 6.15e-05 s⁻¹ | 36200 M⁻¹ s⁻¹ | Mutation 1-25 (antibody, V domains shown) VH: QVQLQQSGTELAKPGASVKFSCKASGYTFSSYWMYWIKQRPGQGLEWIGYINPSSGHTDYNQRFKDKATLTADKSSSTAYMQLNSLTSEDSAVYYCARRYYGPFGMDYWGQGTSVTVSS VL: EIFLTQSPAIMSASPGEKVTMTCSASTSVSYVHWYQQKSGTSPKRWIYDTSKIASGIPVRFSGSGSGTSYSLTISSMEAEDAATYYCQQWSSNPYTFGGGTKLEIKR
18 | 1.73 nM | 8.25e-05 s⁻¹ | 47800 M⁻¹ s⁻¹ | Mutation 1-22 (antibody, V domains shown) VH: QVQLQQSGTELAKPGASVKFSCKASGYTFTTYWMYWIKQRPGQGLEWIGYLNPSSGHTDYNQKFKDKATLTADKSSSTAYMQLNSLTSEDSAVYYCARKYYGPFGMDYWGQGTSVTVSS VL: EIFLTQSPAIMSASPGEKVTMTCSASTTVSYVHWYQQKSGTSPKRWLYDTSKLASGIPVRFSGSGSGTSYSLTISSMEAEDAATYYCQQWSSQPYTFGGGTKLEIKR
19 | 9.35 nM | 0.000105 s⁻¹ | 11200 M⁻¹ s⁻¹ | Mutation 1-8 (antibody, V domains shown) VH: QVQLQQSGTELAKPGASVKFSCKASGYTFSTYWMYWIKQRPGQGLEWIGYINPSTGHTDYNQKFKDKATLTADKSSSTAYMQLNSLTSEDSAVYYCARRYWGPFGMDYWGQGTSVTVSS VL: EIFLTQSPAIMSASPGEKVTMTCSASTTVSYVHWYQQKSGTSPKRWLYDTSKIASGIPVRFSGSGSGTSYSLTISSMEAEDAATYYCQQWSTQPYTFGGGTKLEIKR
